Test results as given in the DeepSol protein solubility set.

Test: soluble on expression in E. coli; label from the status in PepcDB or PDB records

Sequence | soluble on expression in E. coli
MQGKNTIVTTGDYSIGLLSQTSGNLNTDTIIRVNSDGSVTPSFSDGDDTFIVTAGNHAVGVLACASPGSACACVSSLDEESTADTGSNENNAIAKLDMAKGEITTHGTESYAAYANGTVVKAGDTLDYTNASVTLTDVDITTHGDNAHAIAARQGTVSFNQGEIYTTGPDAAIAKIYNGGTVTLKNTSAVAHQGSGIVLESSINGQEATVDILSGSSLRSANEILYHKDETSNVTITDSEVSSAADVFINNIKGHLTVDATNSKITGSANISTDDNTHTYLSLSDNSTWDIKADSTVSNLTVDNSTVYISRADGRDVEPTRLTITENYVGNNGVLHLRTELDDDNSATDKVVINGNTSGTTRVKVTNAGGSGAYTLNGIEIISVEGESNGEFIKDSRIFAGAYEYSLTRGNTEATNKNWYLTNFQATSGGETNSGGSSAPTVAPTPVLRPEAGSYVANLAAANTLFVMRLNDRAGETRYIDPVTEQERSSRLWLRQIGGHNAWRDSNGQLRTTSHRYVSQLGGDLLTGGFTDSDSWRLGVMAGYARDYNLTHSSVSDYRSKGSVRGYSAGLYATWFADDISKKGAYIDSWAQYSWFKNSVKGDELAYESYSAKGATVSLEAGYGFALNKSFGLEAAKYTWIFQPQAQAIWMGVDHNAHTEANGSRIENDANNNIQTRLGFRTFIRTQEKNSGPHGDDFEPFVEMNWIHNSKDFAVSMNGVKVEQDGVSNLGEIKLGVNGNLNPAASVWGNVGVQLGDNGYNDTAVMVGLKYKF | not soluble
MPDAVVVGAGPNGLVAANLLADAGWSVTVLEEQPEPGGAVRHDGEVAPGFVNDLFSSFYPLAAASPVLGGLRLEEHGLRWAHAPHVLAHPLTDGTCAVLDRDVATTAASLDAFALGDGAAWERLHAVWDRYRADILDALFTPFPPVRATARLALRLRGAGGLRLARTLVLPVRRMGEEEFRGEGGRLLLAGNALHADLAPEAAGSGGFGWLMSMLGQTYGFPVPVGGSGALTEALVHRLRARGGTLHCGRRVERVLVRDRRAVGVRTADGETVTARRAVLANVSVPALYGRLVAPADLPDQVLTDLRRFQWDFATFKVDWALDGPVPWQCEAAARAGTVHLSDGLDELTRFAAQIAMRQVPDRPFSLFGQMTTTDPTRSPRGTESAWAYTHVPHDIRADAGEEGITGTWDTGERELMADRVERQVERFAPGFRALIRARRVLAPPTLQALDANLEGGAINGGTTAMHQQLVFRPVPGTGRPETPVAGLFLASAGAHPGGGVHGAPGANAARAALRQHRFAGLARIQRALTRRDRAGDRHLEHHHHHH | not soluble
SKKVIGKKRAHAEDDELDPMDPSSYSDAPRGGWVVGLKGVQPRAADTTASGPLFQQRPYPSPGAVLRRNAEVASSQKKKPNSQFTEITKRGDGSDGLGDAD | soluble
SSSTSHSSLKSPSHMEKYPQKEKTKEDLDSRSNLHLPETKFSELSKLKNDDMEKANHIESVIKSNLPNCANSDTDFMGLFKSSRYDPSISFSGMSLSDTMTLRGSVQNKLNPRPGKVVIYSEPDVSEKCIEVFSDIQDCSSWSLSPVILIKVVRGCWILYEQPNFEGHSIPLEEGELELSGLWGIEDILERHEEAESDKPVVIGSIRHVVQDYRVSHIDLFTEPEGLGILSSYFDDTEEMQGFGVMQKTCSMKVHWGTWLIYEEPGFQGVPFILEPGEYPDLSFWDTEAAYIGSMRPLKMGGRKVEFPTDPKVVVYEKPFFEGKCVELETGMCSFVMEGGETEEATGDDHLPFTSVGSMKVLRGIWVAYEKPGFTGHQYLLEEGEYRDWKAWGGYNGELQSLRPILGDFSNAHMIMYSEKNFGSKGSSIDVLGIVANLKETGYGVKTQSINVLSGVWVAYENPDFTGEQYILDKGFYTSFEDWGGKNYKISSVQPICLDSFTGPRRRNQIHLFSEPQFQGHSQSFEETTSQIDDSFSTKSCRVSGGSWVVYDGENFTGNQYVLEEGHYPCLSAMGCPPGATFKSLRFIDVEFSEPTIILFEREDFKGKKIELNAETVNLRSLGFNTQIRSVQVIGGIWVTYEYGSYRGRQFLLSPAEVPNWYEFSGCRQIGSLRPFVQKRIYFRLRNKATGLFMSTNGNLEDLKLLRIQVMEDVGADDQIWIYQEGCIKCRIAEDCCLTIVGSLVTSGSKLGLALDQNADSQFWSLKSDGRIYSKLKPNLVLDIKGGTQYDQNHIILNTVSKEKFTQVWEAMVLYT | soluble
MGSDKIHHHHHHMGNTQWQRLLQIEIHDKNGKNRVLLRADSGRLDRLEIHFTAPFSDSPNPSEVSVTIYNLNKKSIDFIKKGNPVYIHAGYAGTSNGVITSGTIAEVKPSVLNGVDRATTFTFLEGKDYSEQKEVNITFNNGTDAHTIINRVAREANIPLSEIKLKNNKIYGSGYTADGQAMMVLEEISKACDTSLYFKRGQLVIKNFRDGNKERYRLSPETGLINQPTKVESHDYTGWSVECLLQHKITTGTAVYIDSKNVKGNFYVKNGQHSYDGSRFVTTCEVVT | not soluble
EETAKEVMTSRLDMVDLEINTPYSDVLKCIVENAYSRIPVYAESRDNIKGILYIKDLLPHLGKGDNFRWQTLVRPAYFVPETKMIDDLLRDFQANKIHIAIVVDEFGGTSGIVTMEDIIEEIVGEINDEYDD | soluble
MDVLSLLRVFGRRRRGLRDLEVSEPEFGDRPEYLEEYVRRFTSETGREEPELVEKIPSSMKNAREFNVIYPVGFGIFIHAYNDPLSESGYNKYVVVEPPRPPEDLVRLIDYKIALVLSEEDAPRSSEEKKRILLAALDKVVAVTSSERIAGGNGGNGSWQYAVKRGRIVIPERYYNYLKYHFIREKVGVGPLEPFLRDPYLEDISCNGVGPVYVVHKMFRSLESSVRFETEGELDDFILKLGEKIGKPISHARPVVDATLPDGSRINIVFGSDVSLKGSNFTIRKVSKIPISVTQLIKWGTFDARIAAYMWMMLEEGMSVFICGETASGKTTSLNAISVFIRPDAKIVTIEDTAEVVLPHPNWTRELTRNTGKPETSVTMFDLLRAALRQRPNYIIVGEIRGAEGNIAFQAMQTGHPVMATFHAANLSRLLQRLTNHPINVPKTNIDSLNIAWFQSAVHVKGFPARRVLEIDEIIGYDPSSGAIAAVPSFTWDPVRDKFIFSGRGASYLLEEKIATMKGIPRRELSIIYEELELRRRFLQTLVDKNILDYFDVYKAIVRAYNIGVEEALKRLERDELLS | soluble
MSLAGSWETYTMKVPSEKNLPTTKVVLKMPKDVEFQQYEPIPGWKVSTQKHDDKSVSVTWEATDGGIQEGQFQQFTFVAKNPDKAEEAAWDAYQYYKDGSIVEWTGDEDADTPHSITNITSAKQVTDEHGATKTEDDSENSGSSALDITAMVLSAAAIILSVAALVKKKRAEGHHHHHH | soluble
GRWILKNDVKNRSVYIKGFPTDATLDDIKEWLEDKGQVLNIQMRRTLHKAFKGSIFVVFDSIESAKKFVETPGQKYKETDLLILFKDDYFAKKNEERKQNKVE | soluble
MAPPSQDVLKEIFNLYDEELDGKIDGTQVGDVARAAGLKPTQAMVTKAAGQEFKRKGEKRLTFEEWLPMYEQLAKEKEQGTYADFYEGLKVFDKEETGKILAAELRHILLALGERLSADEADELLKGVEDGEGMVKYEDFIKKVLAGPFPDQD | not soluble
MAHHHHHHMDCNTGMQLGQQFSKDVTMMHGGVPMSGAMSEQDALMVSAQVGGASPMMAAQWAQNFQQQQAMQAMRQQHEMEQAFQNSQQQQHAAVAQSGQMLGMAGPQQQQFMVQQQQQASMMNAAMMSQGMMTANMGFGMMMPRTQYQPLPNLSVLQPNQQQQQQQQLVNLAPAVQDSAWADQLSQQQWSTDYSQVQTFSAPGMEDKTVEERIKDSEFYKFMDQVKNKEVLIDEEKGELVQGPGPEVGVPEDAEYLRHWAEMEGLNMPEGVFQPPPPASAMMTPENGDPDTYIKEMDMAENDVEDWAQEYAEMQERLQKVTNNTDYPFEPNNPYMFHDFPFDEGMEMLQLGNLAEAALAFEAVCHKDSSNEKAWQILGTTQAENEKDGLAIIALNNARKLNIRNLEVHAALSVSHTNERNADAAMDSLKAWLVNHPEYEQLASVSIPPDAELDVQETFFFADPSRMREARTLYEAAIEMNPSDSQLFTNLGVLHNVAHEFDEAAECFRKAVALHPDDPKMWNKLGATLANGGHPDQALEAYNRALDINPGYVRAMYNMAVAYSNMSQYNMAARQIVKAIASQQGGTKPSGEGSIMATRNMWDLLRMTLNLMDRDDLVQLTYNEQLEPFVKEFGLEGHV | not soluble
MGSDKIHHHHHHMRMPEMMFLQGNEACALGAIKAGCRFFAGYPITPSTEIAEVMARELPKVGGVFVQMEDEIASAAAVVGASLAGVKSMTATSGPGFSLIQEVIGYAIMTETPCVFANVMRLGPSTGLPTKPAQGDIMQTRWGTHGDHAIIALYPSSVAEVYRYIITAFNLAEEYRTPVVFLMDAMLGHMRESFYPPKDEELFIIERLKDTSFGEEDLFVPFSESEYAEPTPFPMAEMGKTKFHVSGLVHDESGFPLSSPDAAEKLIRRLTNKIRLHADEIAFYEEYETEDAEILVVAYGIVARSAMKAVKIARRDRIKVGLFKPITIWPAPVSRFRKLAEKVNTIVIAEMNLGQYAKELISSIDRRSKVIRTINKVNGELIKPEEILDVITETQIEI | not soluble
MGSDKIHHHHHHMIKFLYFTDTHIRGTAPKNRLDPFVETLKHKLHEVMEIAETEKVDMLLHGGDVFDRPDLSPNVVGQFAQIFRKTSRPIYAIAGNHDTFGHNPETISRTMLGLLHSFGIIHIIDPQTPVLVEKDGVKVQISGQPYHYDIDQRDPKLDYYPVNVHEADVMVHLVHSMLVEKALPEGIPHTLIDHIWGTSADVLLTGHFHGGFGIKQKDGRYICNPGAIARINNHWTELVRTPTVILGTITKDGIDLKERPLQSAKNGEEVLDRSFLEKSINQEEKLHAFIQQVKEHAEFQSLNMNDVINEIAAMSNVEEPVKQEALRRITVIEEAWKGGEHEYD | not soluble
MGSDKIHHHHHHMTITPHTLAVWADDQRAGLLDRSIDQHQYVFAYDPAAESPSAQVSLTMPVRLESWASRDLHPIFQMNLPEGALLEAIRRTVSKLIGEDDLTILRVTGGNQVGRNRFSLAADPAPGIVETKESLDELLSYPDTEELFNDLVAKYALRSGVSGVQPKVMLDATERGTAAVGGYIVKSWGSEYPQLAANEFFCMTAAKRAGLSVPEFHLSENGGLFVMKRFDLGERGEPLGFEDICSLQALATTRKYSSTYERVARTIKDFVSPAALLVAREQFFASLVLSCMVRNGDAHLKNFGVLYDRPGQLVQLAPVYDVVTTTAYIPKDVPALSLFGTKKWWSRRALERFAVSHLSLPVGRVGQILEKVAEAVTDTRGIVSAYMVEHPEYREVGNLQLASWEVGVANLVLI | not soluble
MSFRETFLNNKFKFACRDSFLIEYYLEECYMSKKIINVVAAAIEKDGKIFCAQRPEGKSLGGYWEFPGGKLKEGESPEEALIREIYEELNSKIEIISFVNEASYDYDFGTVVMKTFHAKLVCGNLDLLEHQDSVWLEPSRLKTLNWAPVDRPAVELLSKEGHHHHHH | soluble
MVKVYIHDNKVDSDYRAPHNSGTELSLDELAKLGVIYKYCANEEEVNEIARQREYKNRDVVNICEGSFKSEAEFNEKLATFYQEHLHEDEEIRYCLEGAGYFDVRDASTPENWIRCLVESGDLLILPPGIYHRFTLTTSNHIKALRLFKDEPKWQAINRSNQADSLPVRKDYIALINQY | soluble
MVKKEFQLTHIFKNVSKLKVGKFAWTPMKEHFNVSWQIAITRTHFRNEEKMEIQVGCQKLTKDDVPAGVEGEFTIKLTNSSGISTSKSSRLKLVKNGGLGFLKIVWKVMQDEYLIDDSIIIEATVKITKMTGISKKPLKCFDQSKEKFSDVILAVGDQKFFVLRKFLASHSTFFESRFLGNFDEADKSEVTLRDIDSADFQNLLEVLYGEPAIDDDTVDGILHLAHMYDIPLPIRKCEEFLIEVSEKSMKDQLVLAKQYQLEKLKVKKKT | not soluble
MGHHHHHHSHMAATSGTDEPVSGELVSVAHALSLPAESYGNDPDIEMAWAMRAMQHAEVYYKLISSVDPQFLKLTKVDDQIYSEFRKNFETLRIDVLDPEELKSESAKEKWRPFCLKFNGIVEDFNYGTLLRLDCSQGYTEENTIFAPRIQFFAIEIARNREGYNKAVYISVQDKEGEKGVNNGGEKRADSGEEENTKNGGEKGADSGEEKEEGINREDKTDKGGEKGKEADKEINKSGEKAM | not soluble
